Patent publication US20190241669A1 (published 2019)
Residue numbers refer to the chain shown, from its start.

B1: COMBO_Rd4_6nM_C25 (antibody, V domains shown)
VH: EVQLLESGGGLVQPGGSLRLSCAASGFTFSSYPMSWVRQAPGKGLEWVSAIGGSGGSTYYADSVKGRFTISRDNSKNTLYLQMNSLRAEDTAVYYCARYWPMDPWGQGTLVTVSS
VL: EIVLTQSPGTLSLSPGERATLSCRASQSVSSPYLAWYQQKPGQAPRLLMYDASIRATGIPDRFSGSGSGTDFTLTISRLEPEDFAVYYCQQYQSWPLTFGQGTKVEIK
notes: IgG
B2: COMBO_Rd4_0.6nM_C22 (antibody, V domains shown)
VH: B1 VH with P33A, S35N, G52S, G53D, T58R, Y59W, A97T, P104I
VL: B1 VL with Q27V, S28R, P32T, Q93M, S94K
notes: IgG; also called COM22
B3: A02_Rd4_0.6nM_C18 (antibody, V domains shown)
VH: B1 VH with P33A, S35N, I51V, G52L, G53D, D103S, P104L
VL: B1 VL with S31E, P32L, Q93F, S94G
notes: IgG
B4: COMBO_Rd4_6nM_C12 (antibody, V domains shown)
VH: EVQLLESGGGLVQPGGSLRLSCAASGFTFSSYPMSWVRQAPGKGLEWVSAALGSGGSTYYADSVKGRFTISRDNSKNTLYLQMNSLRAEDTAVYYCARYWPMDSWGQGTLVTVS
VL: B1 VL with S31A, P32S, Q93M
notes: IgG
B5: P5C1_VHVL (antibody, V domains shown)
VH: B1 VH with P104S
VL: B1 VL with P32T, M49I, I54S, T57P, Q93S, S94T, W95S
notes: IgG; also called PC1
B6: P5A2_VHVL (antibody, V domains shown)
VH: B1 VH with P33A, S35N, G52S, G53D, P104I
VL: B1 VL with P32S, Q93G
notes: IgG
B7: L3.PY/L3.KF/H3.AQ (antibody, V domains shown)
VH: EVQLLESGGGLVQPGGSLRLSCAASGFTFGSYAMTWVRQAPGKGLEWVSAISGSGGNTFYADSVKGRFTISRDNSKNTLYLQMNSLRAEDTAVYYCARVSPIAAQMDYWGQGTLVTVSS
VL: EIVLTQSPGTLSLSPGERATLSCRASQSVSSSYLAWYQQKPGQAPRLLIYGASSRATGIPDRFSGSGSGTDFTLTISRLEPEDFAVYYCKFYPYPPSFTFGQGTKVEIK
notes: IgG
B8: L3.PY/L1.FF/H2.QL (antibody, V domains shown)
VH: B7 VH with S63Q, V64L, A104S, Q105G
VL: B7 VL with S32F, Y33F, K90Q, F91H
notes: IgG
B9: L3.PY/L1.FF/H3.TAQ (antibody, V domains shown)
VH: B7 VH with A97T
VL: B7 VL with S32F, Y33F, K90Q, F91H
notes: IgG
B10: L3.PY/L1.FF/H3.AQ (antibody, V domains shown)
VH: B7 VH
VL: B7 VL with S32F, Y33F, K90Q, F91H
notes: IgG
B11: L3.PY/L1.PH/H2.HA (antibody, V domains shown)
VH: B7 VH with G53H, S54A, A104S, Q105G
VL: B7 VL with S31P, S32H, K90Q, F91H
notes: IgG
B12: L3.PY/L1.FF/H3.YA (antibody, V domains shown)
VH: B7 VH with A103Y, Q105G
VL: B7 VL with S32F, Y33F, K90Q, F91H
notes: IgG
B13: L3.PY/L1.FF/H2.QR (antibody, V domains shown)
VH: B7 VH with S63Q, V64R, A104S, Q105G
VL: B7 VL with S32F, Y33F, K90Q, F91H
notes: IgG
B14: L3.PY/L3.KF/H2.LT (antibody, V domains shown)
VH: B7 VH with G53L, S54T, A104S, Q105G
VL: B7 VL
notes: IgG
B15: L3.PY/L3.KF/H2.DY (antibody, V domains shown)
VH: B7 VH with S52D, G53Y, A104S, Q105G
VL: B7 VL
notes: IgG
B16: L3.PY/L1.FF/H2.HA (antibody, V domains shown)
VH: B7 VH with G53H, S54A, A104S, Q105G
VL: B7 VL with S32F, Y33F, K90Q, F91H
notes: IgG
B17: L3.PY/L1.PH/H3.TAQ (antibody, V domains shown)
VH: B7 VH with A97T
VL: B7 VL with S31P, S32H, K90Q, F91H
notes: IgG
B18: L3.PY/L1.FF/H2.DY (antibody, V domains shown)
VH: B7 VH with S52D, G53Y, A104S, Q105G
VL: B7 VL with S32F, Y33F, K90Q, F91H
notes: IgG
B19: L3.PY/L1.PH/H2.QR (antibody, V domains shown)
VH: B7 VH with S63Q, V64R, A104S, Q105G
VL: B7 VL with S31P, S32H, K90Q, F91H
notes: IgG
B20: L3.PY/L1.PH/H3.AQ (antibody, V domains shown)
VH: B7 VH
VL: B7 VL with S31P, S32H, K90Q, F91H
notes: IgG
B21: L3.PY/L1.FF/H2.YQ (antibody, V domains shown)
VH: B7 VH with G53Y, S54Q, A104S, Q105G
VL: B7 VL with S32F, Y33F, K90Q, F91H
notes: IgG
B22: L3.PY/L1.FF/H3.AE (antibody, V domains shown)
VH: B7 VH with Q105E
VL: B7 VL with S32F, Y33F, K90Q, F91H
notes: IgG
B23: L3.PY/L1.AH/H3.TAQ (antibody, V domains shown)
VH: B7 VH with A97T
VL: B7 VL with S31A, S32H, K90Q, F91H
notes: IgG
B24: L3.PY/L1.FF/H2.LT (antibody, V domains shown)
VH: B7 VH with G53L, S54T, A104S, Q105G
VL: B7 VL with S32F, Y33F, K90Q, F91H
notes: IgG
B25: L3.PY/L1.PH/H3.AE (antibody, V domains shown)
VH: B7 VH with Q105E
VL: B7 VL with S31P, S32H, K90Q, F91H
notes: IgG

Biological target: T1, cynomolgus monkey BCMA (cynomolgus monkey, UniProt A0A2K5UD97 1-53)
T1 construct: Soluble analyte in SPR; construct not described; also called cyBCMA; Cyno BCMA
T1 sequence (A0A2K5UD97 entry or part of it): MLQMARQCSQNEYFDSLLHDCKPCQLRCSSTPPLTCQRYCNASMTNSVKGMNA
Test: SPR, IgG on chip, cyBCMA analyte

Binder | Kd | koff | kon
B1 | 0.079 nM | 0.000226 s⁻¹ | 2.85e+06 M⁻¹ s⁻¹
B2 | 0.05 nM | 6.66e-05 s⁻¹ | 1.34e+06 M⁻¹ s⁻¹
B3 | 0.197 nM | 0.000639 s⁻¹ | 3.24e+06 M⁻¹ s⁻¹
B4 | 0.148 nM | 0.000486 s⁻¹ | 3.29e+06 M⁻¹ s⁻¹
B5 | 15.2 nM | 0.0538 s⁻¹ | 3.53e+06 M⁻¹ s⁻¹
B6 | 10.2 nM | 0.0164 s⁻¹ | 1.61e+06 M⁻¹ s⁻¹

Biological target: T1, cynomolgus monkey BCMA
Test: SPR, IgG on chip, cyBCMA analyte, 37C

Binder | Kd | T½ | koff | kon
B7 | 0.93 nM | 4.85 min | 0.00238 s⁻¹ | 2.55e+06 M⁻¹ s⁻¹
B8 | 1.91 nM | 2.57 min | 0.00449 s⁻¹ | 2.36e+06 M⁻¹ s⁻¹
B9 | 1.62 nM | 3.07 min | 0.00376 s⁻¹ | 2.32e+06 M⁻¹ s⁻¹
B10 | 1.51 nM | 3.51 min | 0.00329 s⁻¹ | 2.18e+06 M⁻¹ s⁻¹
B11 | 3.44 nM | 2.09 min | 0.00553 s⁻¹ | 1.61e+06 M⁻¹ s⁻¹
B12 | 1.69 nM | 2.77 min | 0.00416 s⁻¹ | 2.46e+06 M⁻¹ s⁻¹
B13 | 1.65 nM | 2.75 min | 0.00421 s⁻¹ | 2.55e+06 M⁻¹ s⁻¹
B14 | 2.16 nM | 2.8 min | 0.00413 s⁻¹ | 1.91e+06 M⁻¹ s⁻¹
B15 | 1.77 nM | 3.14 min | 0.00368 s⁻¹ | 2.08e+06 M⁻¹ s⁻¹
B16 | 1.79 nM | 2.77 min | 0.00417 s⁻¹ | 2.33e+06 M⁻¹ s⁻¹
B17 | 1.28 nM | 3.61 min | 0.0032 s⁻¹ | 2.51e+06 M⁻¹ s⁻¹
B18 | 1.88 nM | 2.31 min | 0.005 s⁻¹ | 2.66e+06 M⁻¹ s⁻¹
B19 | 1.8 nM | 2.65 min | 0.00436 s⁻¹ | 2.42e+06 M⁻¹ s⁻¹
B20 | 1.5 nM | 3.39 min | 0.00341 s⁻¹ | 2.28e+06 M⁻¹ s⁻¹
B21 | 1.49 nM | 3.55 min | 0.00326 s⁻¹ | 2.19e+06 M⁻¹ s⁻¹
B22 | 1.76 nM | 2.31 min | 0.00501 s⁻¹ | 2.85e+06 M⁻¹ s⁻¹
B23 | 1.32 nM | 3.83 min | 0.00302 s⁻¹ | 2.28e+06 M⁻¹ s⁻¹
B24 | 1.56 nM | 3.38 min | 0.00341 s⁻¹ | 2.19e+06 M⁻¹ s⁻¹
B25 | 0.77 nM | 5.72 min | 0.00202 s⁻¹ | 2.61e+06 M⁻¹ s⁻¹

Biological target: Human BCMA (human) (UniProt Q02223)
Test: SPR, IgG on chip, huBCMA analyte

Binder | Kd | koff | kon
B1 | 0.014 nM | 0.000113 s⁻¹ | 7.98e+06 M⁻¹ s⁻¹
B2 | 0.036 nM | 7.15e-05 s⁻¹ | 1.97e+06 M⁻¹ s⁻¹
B3 | 0.048 nM | 0.000229 s⁻¹ | 4.73e+06 M⁻¹ s⁻¹
B4 | 0.02 nM | 0.00027 s⁻¹ | 1.38e+07 M⁻¹ s⁻¹
B5 | 5.99 nM | 0.0692 s⁻¹ | 1.16e+07 M⁻¹ s⁻¹
B6 | 5.57 nM | 0.0387 s⁻¹ | 6.96e+06 M⁻¹ s⁻¹

Biological target: Human BCMA (human) (UniProt Q02223)
Test: SPR, IgG immobilised, huBCMA analyte, 37 C

Binder | Kd | T½ | koff | kon
B7 | 0.65 nM | 5.09 min | 0.00227 s⁻¹ | 3.48e+06 M⁻¹ s⁻¹
B8 | 0.4 nM | 8.28 min | 0.0014 s⁻¹ | 3.48e+06 M⁻¹ s⁻¹
B9 | 0.54 nM | 6.12 min | 0.00189 s⁻¹ | 3.52e+06 M⁻¹ s⁻¹
B10 | 0.46 nM | 7.51 min | 0.00154 s⁻¹ | 3.32e+06 M⁻¹ s⁻¹
B11 | 0.49 nM | 9.99 min | 0.00116 s⁻¹ | 2.37e+06 M⁻¹ s⁻¹
B12 | 0.51 nM | 6.41 min | 0.0018 s⁻¹ | 3.5e+06 M⁻¹ s⁻¹
B13 | 0.51 nM | 6.54 min | 0.00177 s⁻¹ | 3.47e+06 M⁻¹ s⁻¹
B14 | 0.69 nM | 6.05 min | 0.00191 s⁻¹ | 2.75e+06 M⁻¹ s⁻¹
B15 | 0.67 nM | 6.35 min | 0.00182 s⁻¹ | 2.74e+06 M⁻¹ s⁻¹
B16 | 0.63 nM | 5.29 min | 0.00219 s⁻¹ | 3.49e+06 M⁻¹ s⁻¹
B17 | 0.59 nM | 5.43 min | 0.00213 s⁻¹ | 3.58e+06 M⁻¹ s⁻¹
B18 | 0.65 nM | 4.27 min | 0.00271 s⁻¹ | 4.14e+06 M⁻¹ s⁻¹
B19 | 0.64 nM | 4.89 min | 0.00236 s⁻¹ | 3.69e+06 M⁻¹ s⁻¹
B20 | 0.52 nM | 7.27 min | 0.00159 s⁻¹ | 3.08e+06 M⁻¹ s⁻¹
B21 | 0.46 nM | 7.61 min | 0.00152 s⁻¹ | 3.32e+06 M⁻¹ s⁻¹
B22 | 0.69 nM | 4.39 min | 0.00263 s⁻¹ | 3.82e+06 M⁻¹ s⁻¹
B23 | 0.37 nM | 9.68 min | 0.00119 s⁻¹ | 3.27e+06 M⁻¹ s⁻¹
B24 | 0.51 nM | 6.92 min | 0.00167 s⁻¹ | 3.3e+06 M⁻¹ s⁻¹
B25 | 0.36 nM | 8.61 min | 0.00134 s⁻¹ | 3.68e+06 M⁻¹ s⁻¹
